This passage reports stoichiometry N results from article PMC9935730.

The target in the experiment is Recombinant full-length Pin1, N-terminally His6-tagged (human) (UniProt Q13526). Description: SDS-PAGE and western blot; fractions eluted from the HisTrapHP column with imidazole, 15% SDS-PAGE, HRP conjugated anti-His antibody; second band seen in the more concentrated fractions.

As a reminder, the stoichiometry N is a count of units in the complex or per binding partner.

With “Recombinant full-length Pin1, N-terminally His6-tagged (from UniProt Q13526 1-163) (enzyme)”, the stoichiometry N was 2.
